The text below walks through data of patent publication US20240025965A1 (UNIVERSITEIT TWENTE, published 2024).

Where no end group is shown, it is not given here. membrane = cellular membrane (peptide-display support, peptide attached at its C-terminus via a stable linker); glass slide = glass slide (microarray support, peptide conjugated at its N-terminus via a PEG linker); stable linker = not defined here; PEG linker = not defined here; linker = not defined here; PEG = not defined here

Sequences and labels used below:
B1: SGLTE (peptide)
peptide: {glass slide-PEG}-SGLTE
modifications: reading uncertain
notes: chain-length variant of AXI-I (positions 1-5); fixed on the array by its N-terminus through a PEG linker
B2: SGLTEW (peptide)
peptide: {glass slide-PEG linker}-SGLTEW
modifications: reading uncertain
notes: chain-length variant of AXI-I (positions 1-6); fixed on the array by its N-terminus through a PEG linker
B3: SGATEWLRWFNS (peptide)
peptide: {glass slide-PEG}-SGATEWLRWFNS
modifications: reading uncertain
notes: alanine-scan variant of AXI-I; fixed on the array by its N-terminus through a PEG linker; also called AXI-I with L3 replaced by alanine
B4: SGLTEWLR (peptide)
peptide: {glass slide-PEG linker}-SGLTEWLR
modifications: reading uncertain
notes: chain-length variant of AXI-I (positions 1-8); fixed on the array by its N-terminus through a PEG linker
B5: RWFNS (peptide)
peptide: {glass slide-PEG}-RWFNS
modifications: reading uncertain
notes: chain-length variant of AXI-I (positions 8-12); fixed on the array by its N-terminus through a PEG linker
B6: RYYAITY (peptide)
peptide: {glass slide-PEG}-RYYAITY
modifications: reading uncertain
notes: also called AV3 with R4 replaced by alanine
B7: RAYRITY (peptide)
peptide: {glass slide-PEG}-RAYRITY
modifications: reading uncertain
notes: also called AV3 with Y2 replaced by alanine
B8: AYYRITY (peptide)
peptide: {glass slide-PEG}-AYYRITY
modifications: reading uncertain
notes: also called AV3 with R1 replaced by alanine
B9: RYYRITA (peptide)
peptide: {glass slide-PEG}-RYYRITA
modifications: reading uncertain
notes: also called AV3 with Y7 replaced by alanine
B10: RYYRATY (peptide)
peptide: {glass slide-PEG}-RYYRATY
modifications: reading uncertain
notes: also called AV3 with I5 replaced by alanine

T1 sequence (Q9UKX5 23-1141 limits assumed, chain 1 of 2): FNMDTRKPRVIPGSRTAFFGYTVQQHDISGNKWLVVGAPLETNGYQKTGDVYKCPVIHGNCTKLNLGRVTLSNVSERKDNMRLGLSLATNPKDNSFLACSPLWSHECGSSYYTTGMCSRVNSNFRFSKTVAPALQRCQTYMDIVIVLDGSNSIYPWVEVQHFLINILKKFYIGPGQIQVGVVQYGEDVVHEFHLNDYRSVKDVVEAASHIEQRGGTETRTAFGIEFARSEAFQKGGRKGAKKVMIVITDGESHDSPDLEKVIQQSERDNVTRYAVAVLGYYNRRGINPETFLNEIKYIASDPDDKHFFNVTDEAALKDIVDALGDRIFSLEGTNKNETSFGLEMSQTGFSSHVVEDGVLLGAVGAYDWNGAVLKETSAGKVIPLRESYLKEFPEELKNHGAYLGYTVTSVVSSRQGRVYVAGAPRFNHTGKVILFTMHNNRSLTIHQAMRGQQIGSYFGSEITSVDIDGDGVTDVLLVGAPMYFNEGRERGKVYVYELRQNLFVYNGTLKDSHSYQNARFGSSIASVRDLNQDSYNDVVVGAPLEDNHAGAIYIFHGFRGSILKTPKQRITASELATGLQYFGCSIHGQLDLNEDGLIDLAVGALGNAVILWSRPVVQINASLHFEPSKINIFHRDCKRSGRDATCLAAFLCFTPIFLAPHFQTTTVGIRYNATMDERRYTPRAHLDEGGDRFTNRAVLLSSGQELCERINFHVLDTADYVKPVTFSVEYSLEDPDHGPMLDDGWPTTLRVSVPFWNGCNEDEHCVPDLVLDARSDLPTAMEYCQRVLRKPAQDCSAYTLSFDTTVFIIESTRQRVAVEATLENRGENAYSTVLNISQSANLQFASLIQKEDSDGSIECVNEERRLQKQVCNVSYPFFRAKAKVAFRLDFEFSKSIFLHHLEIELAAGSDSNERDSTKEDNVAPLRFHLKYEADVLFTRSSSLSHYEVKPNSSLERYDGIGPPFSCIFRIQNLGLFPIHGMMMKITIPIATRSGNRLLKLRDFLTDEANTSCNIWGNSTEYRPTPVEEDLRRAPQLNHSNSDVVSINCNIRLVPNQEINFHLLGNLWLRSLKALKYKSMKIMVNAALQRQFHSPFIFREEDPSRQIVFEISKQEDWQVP
T1 sequence (P05556 21-728 limits assumed, chain 2 of 2): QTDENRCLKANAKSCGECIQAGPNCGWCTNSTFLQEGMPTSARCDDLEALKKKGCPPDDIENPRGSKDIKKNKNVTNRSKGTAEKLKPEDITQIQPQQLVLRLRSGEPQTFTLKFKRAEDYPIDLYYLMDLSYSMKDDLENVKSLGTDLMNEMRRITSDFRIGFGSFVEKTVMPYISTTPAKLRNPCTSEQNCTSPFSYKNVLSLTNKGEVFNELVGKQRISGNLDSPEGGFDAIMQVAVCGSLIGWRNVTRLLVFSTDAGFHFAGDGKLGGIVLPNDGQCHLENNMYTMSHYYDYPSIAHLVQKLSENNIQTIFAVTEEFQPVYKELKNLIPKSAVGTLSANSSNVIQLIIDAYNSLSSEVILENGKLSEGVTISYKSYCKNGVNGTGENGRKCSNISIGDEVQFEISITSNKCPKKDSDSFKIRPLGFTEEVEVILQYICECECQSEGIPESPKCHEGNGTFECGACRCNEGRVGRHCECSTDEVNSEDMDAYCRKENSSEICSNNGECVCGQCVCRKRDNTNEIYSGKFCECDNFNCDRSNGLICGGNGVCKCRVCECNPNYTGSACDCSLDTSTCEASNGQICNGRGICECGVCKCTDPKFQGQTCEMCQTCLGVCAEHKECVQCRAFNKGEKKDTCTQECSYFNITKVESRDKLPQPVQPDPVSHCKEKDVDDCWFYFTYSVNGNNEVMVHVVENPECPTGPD

The first experiment concerns the target T1, rhIntegrin α11β1 (human, UniProt Q9UKX5 23-1141; P05556 21-728, limits assumed).
T1 construct: Bought from R&D Systems; also called α11β1 receptor; ITGA11 receptor
Briefly: peptide microarray: peptide fixed by its N-terminus through a PEG linker, incubated with α11β1 receptor (10 µg/ml), anti-ITGA11 antibody and fluorescent secondary antibody, signal of the antibodies alone subtracted. How it is done:
(§1) Peptide microarray was prepared by conjugating peptides at their N-terminal to a glass slide using a PEG linker. […] For the binding studies, the peptide array was blocked with 3% BSA in TBST for 2 hours. Then the array slide was washed 5 times in TB ST and subsequently incubated with the target receptor (α11β1, 10 μg/ml dissolved in PBS) for 1 hour at 37° C. The slides were washed with TBST and then incubated with primary antibody (1 μg/ml) against ITGA11 for 1 hour at 37° C. Then slides were washed and incubated with fluorescent dye labeled secondary antibodies for 30 minutes. The slides were washed with TBST and water and then dried and scanned with a microarray scanner to detect binding of the peptides. The enlightened spots were analyzed using ImageJ software. To determine the unspecific binding, a peptide array was incubated with only primary and secondary antibodies without the receptor incubation step. Then, the signal of unspecific binding was subtracted from the total binding to calculate specific binding.
Take {glass slide-PEG}-LTEWLRWFNS (reading uncertain): the binding result is “binds”.

{glass slide-PEG linker}-SGLTEWLRW (reading uncertain): the binding result was “binds”.

Turning to {glass slide-PEG linker}-WLRWFNS (reading uncertain), the binding result is given as “binds”.

With {glass slide-PEG linker}-SGLTEWLRWF (reading uncertain), the binding result is reported as “binds”.

As for {glass slide-PEG}-LTEWLRWF (reading uncertain), the binding result is “binds”.

On to B1, for which the binding result is reported as “no binding”.

Consider {glass slide-PEG linker}-SGLTEWLRWFN (reading uncertain), for which the binding result is recorded as “binds”.

Take B2: the binding result is “no binding”.

Regarding {glass slide-PEG}-AGLTEWLRWFNS (reading uncertain, Alanine at position 1 of AXI-I), the binding result is listed as “binds”.

For {glass slide-PEG linker}-SGLTEWLAWFNS (reading uncertain, Alanine at position 8 of AXI-I), the binding result was “binds”.

Turning to {glass slide-PEG}-SALTEWLRWFNS (reading uncertain, Alanine at position 2 of AXI-I), the binding result is “binds”.

Turning to {glass slide-PEG linker}-SGLTEWLRWFNA (reading uncertain, Alanine at position 12 of AXI-I), the binding result was “binds”.

For the molecule {glass slide-PEG}-SGLAEWLRWFNS (reading uncertain, Alanine at position 4 of AXI-I), the binding result is recorded as “binds”.

On to {glass slide-PEG}-SGLTAWLRWFNS (reading uncertain, Alanine at position 5 of AXI-I), for which the binding result is “binds”.

Take B3: the binding result is “binds”.

In the case of {glass slide-PEG linker}-SGLTEWARWFNS (reading uncertain, Alanine at position 7 of AXI-I), the binding result is “binds”.

As for {glass slide-PEG linker}-SGLTEWLRAFNS (reading uncertain, Alanine at position 9 of AXI-I), the binding result is given as “binds”.

For the molecule {glass slide-PEG linker}-SGLTEALRWFNS (reading uncertain, Alanine at position 6 of AXI-I), the binding result is reported as “binds”.

Consider {glass slide-PEG}-GLTEWLRWFNS (reading uncertain), for which the binding result is “binds”.

Take {glass slide-PEG}-LRWFNS (reading uncertain): the binding result was “binds”.

For the molecule {glass slide-PEG}-EWLRWFNS (reading uncertain), the binding result is “binds”.

With B4, the binding result is reported as “no binding”.

With {glass slide-PEG}-GLTEWLRWFN (reading uncertain), the binding result is “binds”.

In the case of {glass slide-PEG linker}-TEWLRWFNS (reading uncertain), the binding result is reported as “binds”.

Take B5: the binding result is recorded as “binds”.

In another experiment the target is T2, α5β1 human recombinant protein (human, UniProt P08648 42-995; P05556 21-728).
T2 construct: Bought from R&D Systems; also called α5β1 receptor; integrin α5β1
T2 sequence (P08648 42-995 limits assumed, chain 1 of 2): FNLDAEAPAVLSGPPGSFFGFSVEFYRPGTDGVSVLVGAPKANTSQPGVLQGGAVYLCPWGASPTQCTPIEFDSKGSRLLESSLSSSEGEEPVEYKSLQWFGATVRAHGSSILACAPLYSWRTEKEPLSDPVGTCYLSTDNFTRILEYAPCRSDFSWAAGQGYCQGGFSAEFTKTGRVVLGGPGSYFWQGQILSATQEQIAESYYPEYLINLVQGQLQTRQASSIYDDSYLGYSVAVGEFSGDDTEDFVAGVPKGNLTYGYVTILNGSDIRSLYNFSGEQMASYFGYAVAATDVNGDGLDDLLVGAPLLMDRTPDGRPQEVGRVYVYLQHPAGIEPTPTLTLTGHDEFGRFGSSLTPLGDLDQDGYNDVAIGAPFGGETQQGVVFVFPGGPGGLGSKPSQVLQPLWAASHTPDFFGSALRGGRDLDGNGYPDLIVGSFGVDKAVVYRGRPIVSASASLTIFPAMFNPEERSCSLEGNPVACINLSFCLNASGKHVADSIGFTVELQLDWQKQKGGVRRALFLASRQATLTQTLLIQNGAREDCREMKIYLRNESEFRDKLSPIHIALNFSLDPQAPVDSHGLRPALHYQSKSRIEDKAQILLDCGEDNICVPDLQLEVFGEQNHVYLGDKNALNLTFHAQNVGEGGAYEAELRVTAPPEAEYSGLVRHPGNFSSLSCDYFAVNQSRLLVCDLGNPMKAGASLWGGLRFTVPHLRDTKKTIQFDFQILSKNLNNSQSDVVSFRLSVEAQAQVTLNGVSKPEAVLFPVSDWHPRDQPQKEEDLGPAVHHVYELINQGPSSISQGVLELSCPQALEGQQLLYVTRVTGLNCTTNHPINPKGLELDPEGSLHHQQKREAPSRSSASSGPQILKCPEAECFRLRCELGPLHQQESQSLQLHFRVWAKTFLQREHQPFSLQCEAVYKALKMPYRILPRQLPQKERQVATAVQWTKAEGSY
T2 sequence (P05556 21-728 limits assumed, chain 2 of 2): as the sequence (P05556 21-728 limits assumed, chain 2 of 2) above
Briefly: peptide microarray incubated with α5β1, anti-α5 detection. How it is done: as §1, with “(α5β1,” for “(α11β1,”, “ITGA5” for “ITGA11”
To find out the amino acids responsible for the peptide binding and the most efficient binding peptides, peptide microarrays were developed with alanine replacement and shorter peptides. In addition, a peptide having the sequence […] (SEQ ID NO:11) (AV3-Cys) was developed. For AV3 (RYYRITY (SEQ ID NO:8)), the peptide microarray was incubated with […] receptor, which was captured by anti-α5 and then fluorescent dye labeled secondary antibody. […] Replacement of T6 induced unspecific binding of the peptide to the incubating antibodies (FIG. 13).
With {glass slide-PEG}-RYARITY (reading uncertain) [AV3 with Y3 replaced by alanine], the binding result is on record as “no binding”.

With B6, the binding result is listed as “binds”.

Regarding B7, the binding result was “binds”.

In the case of B8, the binding result was “binds”.

On to B9, for which the binding result was “binds”.

In the case of B10, the binding result is given as “binds”.

In a further experiment the target is T2, α5β1 human recombinant protein. Briefly: overlapping peptides on membrane incubated with 5 µg/ml α5β1; bound receptor transferred and detected with anti-alpha5 antibody. On the procedure:
Peptides were attached to their c-terminal site using stable linker. […] The peptide-displaying […] membrane was soaked in methanol for 1 minute and rinsed in Tris-buffered saline (TBS) and washed three times. Then, the membrane was blocked with 3% BSA in 0.05% TWEEN®-20 containing TBS (TBST) for 3 hours at room temperature. Then, the membrane was washed for 10 minutes with TB ST and incubated with 5 μg/ml α5β1 human recombinant protein (R&D systems) in 3% BSA in TB ST for 1 hour at room temperature and then overnight at 4° C. Subsequently, the membrane was washed three times with TB ST. Thereafter, the bound receptor to the membrane was transferred to the PVDF membrane. To achieve this, first, the PVDF membrane was soaked in methanol for 1 minute and then blocked with 5% skimmed fat milk for 2 hours. Then, the membrane was incubated with primary anti-alpha5 integrin antibody (Sigma-Aldrich) for overnight in 5% skimmed milk. The membrane was washed three times with TBST and then incubated with anti-rabbit-HRP secondary antibody (Dako), washed and developed with chemiluminescence detection kit.
The domains 9 and 10 of FN were chosen to design peptides, as these domains were reported to be responsible for binding to the α5β1 receptor, as shown with the docking experiments (Nagae et al, 2012 J. Cell Biol. 131-140). The interaction studies were performed against human recombinant integrin α5β1 receptor and the bound proteins were transferred to another membrane and ITGA5 was detected with antibodies. Many sequences appeared to bind to the α5β1 receptor from human and mouse domains, the strongest binding was obtained with 2 sequences from human FN-III domain 10 as follows.
For SIELTNLLVRYS-{stable linker-membrane} (reading uncertain), the binding result was “binds”.

With TTVRYYRITYGE-{stable linker-membrane} (reading uncertain), the binding result is given as “binds”.

Regarding GDSPASSKPISI-{linker-membrane} (reading uncertain), the binding result is recorded as “binds”.
